The target in test [1] is recombinant human Vim (human) (UniProt P08670). In words: AFM single-molecule force spectroscopy.
For test [2] the target is unchanged. In words: quartz crystal microbalance with dissipation (QCM-D); pH 7.4.
Test [3] has the same target. The experiment in a line: quartz crystal microbalance with dissipation (QCM-D).

recombinant human Vim (human), sequence (P08670 whole entry): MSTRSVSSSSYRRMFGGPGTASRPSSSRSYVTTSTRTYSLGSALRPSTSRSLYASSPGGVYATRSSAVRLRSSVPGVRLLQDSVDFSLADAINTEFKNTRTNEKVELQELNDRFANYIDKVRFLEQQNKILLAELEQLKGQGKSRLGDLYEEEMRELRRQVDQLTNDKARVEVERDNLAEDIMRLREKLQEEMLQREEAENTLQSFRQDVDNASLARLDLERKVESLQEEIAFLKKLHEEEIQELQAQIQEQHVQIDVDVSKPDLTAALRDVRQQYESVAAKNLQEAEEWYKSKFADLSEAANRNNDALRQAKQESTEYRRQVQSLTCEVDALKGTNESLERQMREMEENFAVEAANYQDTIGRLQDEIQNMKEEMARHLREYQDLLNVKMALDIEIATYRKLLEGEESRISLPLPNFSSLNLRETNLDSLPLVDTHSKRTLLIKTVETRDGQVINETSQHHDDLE

Consider “wild-strain SARS-CoV-2 spike protein RBD (from UniProt P0DTC2) (domain or fragment)”, for which, in test [1], the binding probability (specific adhesion events) (% of force curves) is below 20 and the rupture force at 5 um/s was 58 pN. In test [2], the adsorbed amount was determined as 1 mg m^–2. In test [3], the Ka (equilibrium adsorption constant), fraction I came to 0.0011 cm; the Ka (equilibrium adsorption constant), fraction II amounted to 0.46 cm; the Keq, fraction I is 4.7e+06 L mol^–1; the Keq, fraction II amounted to 9.2e+08 L mol^–1. Moreover, in test [3], the desorption time, loosely bound fraction is 200 s; the desorption time, tightly bound fraction was above 10000 s; the kd' (desorption constant), fraction I was 0.063 s^–1; the kd' (desorption constant), fraction II was 0.00015 s^–1.

For the origin of these results see article PMC10360031.
